Data: patent US20070059320A1

Biological target: NADH dehydrogenase subunit 2 (ND2), native protein in brain lysates, PSD preparations, hippocampal neurons and tissues (rat) (UniProt P11662)
Assay: cell-based or functional assay

NADH dehydrogenase subunit 2 (ND2), native protein in brain lysates, PSD preparations, hippocampal neurons and tissues (rat), sequence (P11662 whole entry): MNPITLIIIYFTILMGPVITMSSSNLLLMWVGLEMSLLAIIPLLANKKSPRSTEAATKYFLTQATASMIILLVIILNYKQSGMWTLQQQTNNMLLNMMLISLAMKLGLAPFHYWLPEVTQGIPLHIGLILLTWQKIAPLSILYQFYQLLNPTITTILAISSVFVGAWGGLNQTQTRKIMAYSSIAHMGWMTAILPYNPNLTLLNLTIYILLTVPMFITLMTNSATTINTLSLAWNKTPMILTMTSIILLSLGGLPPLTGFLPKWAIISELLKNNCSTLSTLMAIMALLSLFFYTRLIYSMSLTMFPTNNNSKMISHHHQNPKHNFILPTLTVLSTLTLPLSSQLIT

NMDAR component of mEPSCs (cultured hippocampal neurons, whole-cell recording): 56%
Substance: Src40-58 peptide (amino acid residues 40-58 of SEQ ID NO:4)
